Results: patent US9605038B2, “Fusion peptide comprising dhFas-1 domain and MMP substrate and use thereof for preventing and treating rheumatoid arthritis” (Kyungpook National University Industry-Academic Cooperation …, priority 2010, dated 2017)
Substitutions are numbered along the chain they refer to. “Also recorded” adds a separate entry of the source.

Tests used:
[1] = test system: NIH3T3; assay: βig-h3-mediated cell migration test (transwell), NIH3T3; format: cell-based, mouse; settings: 7 hours
Description: In the lower compartment of a transwell filter having an 8 um hole size allowing cells to be migrated, βig-h3 was cultured at 4° C. for 12 to 14 hours and coated. In DMEM+0.5% BSA culture medium, NIH3T3 was introduced, and administered with MFK23, MFK24 or MFK25 at concentrations, followed by mixing. The resultant mixture was cultured at 37° C. for 30 minutes, inoculated into the upper chamber of the coated well, and cultured for 7 hours at 37° C. Then, the cells migrated to the lower compartment of the filter were fixed by paraformaldehyde, and strained by a crystal violet. The cells […] remaining in the upper chamber were wiped out and the number of cells migrated to the lower compartment was microscopically counted.

[2] = target: MMP3 (Homo sapiens, UniProt P08254); assay: Enzymatic digestion test, MMP3; format: biochemical; settings: 3 ug peptide, MMP3 10, 50, 100 ng, 37° C. 4 hours
Description: (§1) 3 ug of synthesized mdhFas-1-MMPsubstrate structure modified protein, together with MMP1 (5 ng, 10 ng and 50 ng), MMP2 (100 ng, 200 ng and 800 ng), MMP3 (10 ng, 50 ng and 100 ng), cathepsin D (5 ng, 10 ng and 50 ng), cathepsin L (100 ng, 200 ng and 800 ng), and cathepsin K (10 ng, 50 ng and 100 ng), was mixed with enzyme buffer (150 mM NaCl, 5 mM. CaCl2, 20 mM Tris-HCl pH7.5), and reacted at 37° C. for 4 hours. The resultant product was subjected to electrophoresis through 15% polyacrylamide gel, transferred to a Nitrocellulose Membrane (Schleicher & Schuell), blocked at room temperature for 1 hour with TBST solution containing 3% BSA (20 mmole/L Tris-HCl, 137 mmole//l NaCl, 0.1% Tween-20), washed TBST solution three times (each for 10 minutes), and reacted with primary antibody (anti-Histidine or anti-Bigh3) for 1 hour. The resultant product was washed with TBST solution three times (each for 10 minutes), reacted with a secondary antibody conjugated to horseradish peroxidase (HRP) for 1 hour, washed TBST solution three times (each for 10 minutes), and visualized by ECL (Amersham Biosciences, UK) so as to detect the change in the amount of mdhFas-1-MMPsubstrate-RGD structural peptide.

[3] = target: T1, cathepsin K (Homo sapiens, UniProt P43235); assay: Enzymatic digestion test, cathepsin K; format: biochemical; settings: 3 ug peptide, cathepsin K 10, 50, 100 ng, 37° C. 4 hours
T1 sequence (P43235 115-329): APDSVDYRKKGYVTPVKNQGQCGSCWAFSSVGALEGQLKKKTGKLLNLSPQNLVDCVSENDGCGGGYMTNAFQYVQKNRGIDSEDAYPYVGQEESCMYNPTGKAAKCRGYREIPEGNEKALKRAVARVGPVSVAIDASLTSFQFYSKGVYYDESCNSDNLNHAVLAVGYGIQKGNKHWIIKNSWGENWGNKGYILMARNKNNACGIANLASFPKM
Description: as §1

[4] = target: T2, MMP2 (Homo sapiens, UniProt P08253); assay: Enzymatic digestion test, MMP2; format: biochemical; settings: 3 ug peptide, MMP2 100, 200, 800 ng, 37° C. 4 hours
T2 sequence (P08253 110-660): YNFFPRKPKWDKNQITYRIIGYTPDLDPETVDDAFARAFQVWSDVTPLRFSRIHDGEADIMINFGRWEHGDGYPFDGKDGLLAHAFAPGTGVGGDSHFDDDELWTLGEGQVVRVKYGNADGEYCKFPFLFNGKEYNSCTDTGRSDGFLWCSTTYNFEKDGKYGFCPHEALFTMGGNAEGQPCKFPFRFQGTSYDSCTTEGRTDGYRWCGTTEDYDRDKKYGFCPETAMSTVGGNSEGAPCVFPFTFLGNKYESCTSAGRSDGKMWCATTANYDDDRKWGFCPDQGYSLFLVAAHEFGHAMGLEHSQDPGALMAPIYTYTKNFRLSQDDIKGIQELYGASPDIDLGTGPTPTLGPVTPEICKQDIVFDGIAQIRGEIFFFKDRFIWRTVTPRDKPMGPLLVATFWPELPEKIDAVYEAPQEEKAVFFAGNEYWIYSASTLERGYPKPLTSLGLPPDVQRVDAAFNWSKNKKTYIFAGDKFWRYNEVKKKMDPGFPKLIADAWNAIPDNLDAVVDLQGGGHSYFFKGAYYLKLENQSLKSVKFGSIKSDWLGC
Description: as §1

[5] = Toxicity test in CIA mouse (weight, serologic test, blood test); settings: for body weight change compared to control group: 22nd day vs 48th day; for overall toxicity: serologic test, blood test, weight; for ALT / AST / BUN / Crea / PLT / RBC / WBC: CIA model, 4 weeks
Description: On the 48th day, a serologic test and a blood test were carried out.

[6] = target: cathepsin L (Homo sapiens, UniProt P07711); assay: Enzymatic digestion test, cathepsin L; format: biochemical; settings: 3 ug peptide, cathepsin L 100, 200, 800 ng, 37° C. 4 hours
Description: as §1

MMP3, sequence (P08254 100-477, species assumed): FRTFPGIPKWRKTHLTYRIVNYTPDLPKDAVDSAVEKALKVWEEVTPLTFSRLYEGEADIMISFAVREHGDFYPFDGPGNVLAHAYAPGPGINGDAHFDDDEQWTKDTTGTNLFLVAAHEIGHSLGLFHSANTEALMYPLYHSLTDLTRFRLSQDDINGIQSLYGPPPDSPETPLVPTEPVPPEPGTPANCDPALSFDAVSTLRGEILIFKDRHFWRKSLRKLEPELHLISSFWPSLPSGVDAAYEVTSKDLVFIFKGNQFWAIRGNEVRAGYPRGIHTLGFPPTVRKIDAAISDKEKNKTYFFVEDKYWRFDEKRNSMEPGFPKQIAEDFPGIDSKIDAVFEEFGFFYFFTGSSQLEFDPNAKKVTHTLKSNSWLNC
cathepsin L, sequence (P07711 114-333, species assumed): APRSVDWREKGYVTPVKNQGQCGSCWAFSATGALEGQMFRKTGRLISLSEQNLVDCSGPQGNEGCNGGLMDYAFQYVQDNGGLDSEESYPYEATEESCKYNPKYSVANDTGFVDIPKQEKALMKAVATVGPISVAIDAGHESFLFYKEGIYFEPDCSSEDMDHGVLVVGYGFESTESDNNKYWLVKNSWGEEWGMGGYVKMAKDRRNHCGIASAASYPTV

B1: MFK23: fusion peptide having sequential links of mdhFas-1, MMP2 substrate GPLGVRG (SEQ ID NO: 5), and QERGDSLA (SEQ ID NO: 10) (protein)
chain: QAMPPEELNKLLANAKELTNILKYHIGDEILVSGGIGALVRLKSLQGDKLEVSSKNNVVSVNKEPVAETDIMEFGPLGVRGVDGQERGDSLAGLE
modifications: MFK23
βig-h3-mediated cell migration [1]: inhibited the cell migration; also recorded: concentration-dependently inhibited
cleavage through treatment with MMP-3 [2]: not cleaved
cleavage through treatment with cathepsin K [3]: not cleaved
cleavage through treatment with MMP-2 [4]: concentration-dependently cleaved
death during the therapy period ([5]; CIA mouse): No mouse died
body weight change compared to control group ([5]; CIA mouse): maintained similarly to that of the control group
overall toxicity ([5]; CIA mouse): a low toxicity and a low dangerousness
cleavage through treatment with cathepsin L [6]: not cleaved

B2: MFK24: fusion peptide having sequential links of mdhFas-1, MMP1 substrate GPQGIAG (SEQ ID NO: 6), and QERGDSLA (SEQ ID NO: 10) (protein)
chain: B1 chain with L77Q, V79I, R80A
modifications: MFK24
βig-h3-mediated cell migration [1]: inhibited the cell migration; also recorded: concentration-dependently inhibited
cleavage through treatment with MMP-3 [2]: not cleaved
cleavage through treatment with cathepsin K [3]: not cleaved
cleavage through treatment with MMP-2 [4]: not cleaved
ALT ([5]; 0.1 mg/kg): 37.8 ± 7.1 U/L
AST ([5]; 0.1 mg/kg): 224.3 ± 13 U/L
BUN ([5]; 0.1 mg/kg): 19.0 ± 3.3 mg/dL
Crea ([5]; 0.1 mg/kg): 0.54 ± 0.10 mg/dL
PLT ([5]; 0.1 mg/kg): 1280.2 ± 284 ×10^3/ul
RBC ([5]; 0.1 mg/kg): 12.3 ± 0.7 ×10^6/ul
WBC ([5]; 0.1 mg/kg): 5.0 ± 1.2 ×10^3/ul
ALT ([5]; 1 mg/kg): 40.6 ± 7.2 U/L
AST ([5]; 1 mg/kg): 270.5 ± 17 U/L
BUN ([5]; 1 mg/kg): 21.2 ± 3.4 mg/dL
Crea ([5]; 1 mg/kg): 0.54 ± 0.14 mg/dL
PLT ([5]; 1 mg/kg): 1155.3 ± 184 ×10^3/ul
RBC ([5]; 1 mg/kg): 10.9 ± 1.7 ×10^6/ul
WBC ([5]; 1 mg/kg): 3.7 ± 0.5 ×10^3/ul
ALT ([5]; 10 mg/kg): 43.6 ± 14.2 U/L
AST ([5]; 10 mg/kg): 222.0 ± 25 U/L
BUN ([5]; 10 mg/kg): 20.4 ± 4.4 mg/dL
Crea ([5]; 10 mg/kg): 0.54 ± 0.11 mg/dL
PLT ([5]; 10 mg/kg): 1050.1 ± 359 ×10^3/ul
RBC ([5]; 10 mg/kg): 11.4 ± 1.5 ×10^6/ul
WBC ([5]; 10 mg/kg): 5.0 ± 1.8 ×10^3/ul
ALT ([5]; 30 mg/kg): 28.9 ± 8.2 U/L
AST ([5]; 30 mg/kg): 286.6 ± 48 U/L
BUN ([5]; 30 mg/kg): 12.4 ± 4.8 mg/dL
Crea ([5]; 30 mg/kg): 0.33 ± 0.02 mg/dL
PLT ([5]; 30 mg/kg): 674.7 ± 111 ×10^3/ul
RBC ([5]; 30 mg/kg): 12.4 ± 0.1 ×10^6/ul
WBC ([5]; 30 mg/kg): 6.1 ± 1.1 ×10^3/ul
death during the therapy period ([5]; CIA mouse): No mouse died
body weight change compared to control group ([5]; CIA mouse): maintained similarly to that of the control group
bilirubin and creatine compared to control group ([5]; CIA mouse, 48th day): no significant difference
erythrocytes, leukocytes, platelets and liver function values (AST and ALT) compared to control ([5]; CIA mouse, 48th day): did not show abnormalities
overall toxicity ([5]; CIA mouse): a low toxicity and a low dangerousness
cleavage through treatment with cathepsin L [6]: not cleaved
